Laboratory results published in paper PMC7469494 (Autophagy, 2019).

B3: Vac8[40–515] (domain or fragment, S. cerevisiae, UniProt P39968 40-515, looked up)
chain: QLDFYSGGPLKALTTLVYSDNLNLQRSAALAFAEITEKYVRQVSREVLEPILILLQSQDPQIQVAACAALGNLAVNNENKLLIVEMGGLEPLINQMMGDNVEVQCNAVGCITNLATRDDNKHKIATSGALIPLTKLAKSKHIRVQRNATGALLNMTHSEENRKELVNAGAVPVLVSLLSSTDPDVQYYCTTALSNIAVDEANRKKLAQTEPRLVSKLVSLMDSPSSRVKCQATLALRNLASDTSYQLEIVRAGGLPHLVKLIQSDSIPLVLASVACIRNISIHPLNEGLIVDAGFLKPLVRLLDYKDSEEIQCHAVSTLRNLAASSEKNRKEFFESGAVEKCKELALDSPVSVQSEISACFAILALADVSKLDLLEANILDALIPMTFSQNQEVSGNAAAALANLCSRVNNYTKIIEAWDRPNEGIRGFLIRFLKSDYATFEHIALWTILQLLESHNDKVEDLVKNDDDIINGVRK
B4: Vac8[40–515]^N60R,N62R (domain or fragment, S. cerevisiae, UniProt P39968 40-515, looked up)
chain: QLDFYSGGPLKALTTLVYSDRLRLQRSAALAFAEITEKYVRQVSREVLEPILILLQSQDPQIQVAACAALGNLAVNNENKLLIVEMGGLEPLINQMMGDNVEVQCNAVGCITNLATRDDNKHKIATSGALIPLTKLAKSKHIRVQRNATGALLNMTHSEENRKELVNAGAVPVLVSLLSSTDPDVQYYCTTALSNIAVDEANRKKLAQTEPRLVSKLVSLMDSPSSRVKCQATLALRNLASDTSYQLEIVRAGGLPHLVKLIQSDSIPLVLASVACIRNISIHPLNEGLIVDAGFLKPLVRLLDYKDSEEIQCHAVSTLRNLAASSEKNRKEFFESGAVEKCKELALDSPVSVQSEISACFAILALADVSKLDLLEANILDALIPMTFSQNQEVSGNAAAALANLCSRVNNYTKIIEAWDRPNEGIRGFLIRFLKSDYATFEHIALWTILQLLESHNDKVEDLVKNDDDIINGVRK
B5: Vac8[40–515]^N62R (domain or fragment, S. cerevisiae, UniProt P39968 40-515, looked up)
chain: QLDFYSGGPLKALTTLVYSDNLRLQRSAALAFAEITEKYVRQVSREVLEPILILLQSQDPQIQVAACAALGNLAVNNENKLLIVEMGGLEPLINQMMGDNVEVQCNAVGCITNLATRDDNKHKIATSGALIPLTKLAKSKHIRVQRNATGALLNMTHSEENRKELVNAGAVPVLVSLLSSTDPDVQYYCTTALSNIAVDEANRKKLAQTEPRLVSKLVSLMDSPSSRVKCQATLALRNLASDTSYQLEIVRAGGLPHLVKLIQSDSIPLVLASVACIRNISIHPLNEGLIVDAGFLKPLVRLLDYKDSEEIQCHAVSTLRNLAASSEKNRKEFFESGAVEKCKELALDSPVSVQSEISACFAILALADVSKLDLLEANILDALIPMTFSQNQEVSGNAAAALANLCSRVNNYTKIIEAWDRPNEGIRGFLIRFLKSDYATFEHIALWTILQLLESHNDKVEDLVKNDDDIINGVRK

Key:
[1] = biological target: T1, Vac8[40–578] (S. cerevisiae, UniProt P39968 40-578); assay: SAXS
T1 sequence (looked up): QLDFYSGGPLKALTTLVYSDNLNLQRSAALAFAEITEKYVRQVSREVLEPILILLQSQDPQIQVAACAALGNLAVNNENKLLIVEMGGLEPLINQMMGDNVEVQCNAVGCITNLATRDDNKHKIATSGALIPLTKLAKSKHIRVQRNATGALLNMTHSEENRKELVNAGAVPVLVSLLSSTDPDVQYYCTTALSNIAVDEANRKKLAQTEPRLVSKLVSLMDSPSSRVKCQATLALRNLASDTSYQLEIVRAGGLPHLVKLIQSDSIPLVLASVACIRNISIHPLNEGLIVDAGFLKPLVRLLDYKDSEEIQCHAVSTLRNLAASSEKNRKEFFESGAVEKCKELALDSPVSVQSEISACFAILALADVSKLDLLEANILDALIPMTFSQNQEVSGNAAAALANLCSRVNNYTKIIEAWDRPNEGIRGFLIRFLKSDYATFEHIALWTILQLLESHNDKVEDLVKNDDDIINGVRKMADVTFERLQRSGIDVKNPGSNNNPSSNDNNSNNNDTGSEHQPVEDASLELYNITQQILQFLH

[2] = biological target: B4; assay: SEC
[3] = biological target: B5; assay: SEC
[4] = biological target: B3; assay: cross-linking
[5] = biological target: T2, Vac8[40–515]^A51R (S. cerevisiae, UniProt P39968 40-515, A51R); assay: cross-linking
T2 sequence (looked up): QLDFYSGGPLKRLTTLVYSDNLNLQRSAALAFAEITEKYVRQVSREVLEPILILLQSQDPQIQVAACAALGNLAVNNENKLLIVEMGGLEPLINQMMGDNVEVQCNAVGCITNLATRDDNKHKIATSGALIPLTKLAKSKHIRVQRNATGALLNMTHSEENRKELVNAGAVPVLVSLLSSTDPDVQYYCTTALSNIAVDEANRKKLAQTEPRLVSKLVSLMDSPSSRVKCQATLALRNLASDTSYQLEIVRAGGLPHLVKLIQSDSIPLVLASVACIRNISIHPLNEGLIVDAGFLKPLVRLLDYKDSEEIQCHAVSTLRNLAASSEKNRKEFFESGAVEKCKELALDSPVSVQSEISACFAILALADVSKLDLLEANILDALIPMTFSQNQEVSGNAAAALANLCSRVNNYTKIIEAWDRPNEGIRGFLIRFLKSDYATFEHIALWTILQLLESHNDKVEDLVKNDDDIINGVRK

[6] = biological target: the molecule itself; assay: AUC
[7] = biological target: the molecule itself; assay: SEC
[8] = biological target: the molecule itself; assay: SEC; remark: listed apart in the source

B1: tNvj1 (Nvj1 construct comprising residues 229–321) (domain or fragment, S. cerevisiae, UniProt P38881 229-321, looked up)
chain: NREKDCSSSSEVESQSKCRKESTAEPDSLSRDTRTTSSLKSSTSFPISFKGSIDLKSLNQPSSLLHIQVSPTKSSNLDAQVNTEQAYSQPFRY
B1: binds [1]; binds [2]; binds [3]. B1: binds [4]; binds [5].

B2: Vac8[Δ19–33] (full-length Vac8 lacking the H1 helix, residues 19–33) (natural protein, S. cerevisiae, UniProt P39968 1-578, looked up)
chain: MGSCCSCLKDSSDEASVSYLEDKDQLDFYSGGPLKALTTLVYSDNLNLQRSAALAFAEITEKYVRQVSREVLEPILILLQSQDPQIQVAACAALGNLAVNNENKLLIVEMGGLEPLINQMMGDNVEVQCNAVGCITNLATRDDNKHKIATSGALIPLTKLAKSKHIRVQRNATGALLNMTHSEENRKELVNAGAVPVLVSLLSSTDPDVQYYCTTALSNIAVDEANRKKLAQTEPRLVSKLVSLMDSPSSRVKCQATLALRNLASDTSYQLEIVRAGGLPHLVKLIQSDSIPLVLASVACIRNISIHPLNEGLIVDAGFLKPLVRLLDYKDSEEIQCHAVSTLRNLAASSEKNRKEFFESGAVEKCKELALDSPVSVQSEISACFAILALADVSKLDLLEANILDALIPMTFSQNQEVSGNAAAALANLCSRVNNYTKIIEAWDRPNEGIRGFLIRFLKSDYATFEHIALWTILQLLESHNDKVEDLVKNDDDIINGVRKMADVTFERLQRSGIDVKNPGSNNNPSSNDNNSNNNDTGSEHQPVEDASLELYNITQQILQFLH
B2: binds [6].

B3: binds [7].

B4: binds [8].

B5: binds [7].
